In US20180169189A1 (AUTOLUS, published 2018):

Assays:
CD20-P172W = biological target: T1, CD20-P172W (human, UniProt P11836 1-297); assay: flow cytometry staining of transfected 293T cells
T1 construct: also called P172W mutated CD20
T1 sequence: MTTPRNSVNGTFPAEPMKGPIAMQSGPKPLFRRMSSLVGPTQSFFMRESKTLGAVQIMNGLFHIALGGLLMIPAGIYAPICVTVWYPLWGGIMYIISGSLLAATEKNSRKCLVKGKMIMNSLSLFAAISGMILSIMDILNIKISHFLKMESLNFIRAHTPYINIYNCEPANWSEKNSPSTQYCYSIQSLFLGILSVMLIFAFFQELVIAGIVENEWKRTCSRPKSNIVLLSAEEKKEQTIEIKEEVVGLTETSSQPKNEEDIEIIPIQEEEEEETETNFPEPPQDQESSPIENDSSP

[1] = biological target: T2, amino-terminal (endodomain) truncate of CD20 (human, UniProt P11836 42-297); assay: flow cytometry, transfected 293T cells
T2 construct: Expressed on transfected 293T cells, fused or co-expressed with eGFP (the text and the legend differ); As expressed in dCD20-FAS, the construct carries an extra N-terminal MG; also called dCD20
T2 sequence: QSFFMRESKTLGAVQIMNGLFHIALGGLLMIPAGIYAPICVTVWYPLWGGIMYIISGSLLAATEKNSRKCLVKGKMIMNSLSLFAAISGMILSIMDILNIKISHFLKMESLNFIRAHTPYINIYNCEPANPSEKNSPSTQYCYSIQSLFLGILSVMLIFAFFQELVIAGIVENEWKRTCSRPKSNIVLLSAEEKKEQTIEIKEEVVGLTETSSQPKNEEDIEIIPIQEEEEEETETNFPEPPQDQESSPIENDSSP
Excerpt: (§1) To this end: full-length CD20; an amino-terminal (endodomain) truncate of CD20; and a carboxy-terminal (endodomain) truncate of CD20 were each fused with eGFP.

[2] = biological target: T3, carboxy-terminal (endodomain) truncate of CD20 (human, UniProt P11836 2-236); assay: flow cytometry, transfected 293T cells
T3 construct: Expressed on transfected 293T cells, fused or co-expressed with eGFP (the text and the legend differ); also called CD20d
T3 sequence: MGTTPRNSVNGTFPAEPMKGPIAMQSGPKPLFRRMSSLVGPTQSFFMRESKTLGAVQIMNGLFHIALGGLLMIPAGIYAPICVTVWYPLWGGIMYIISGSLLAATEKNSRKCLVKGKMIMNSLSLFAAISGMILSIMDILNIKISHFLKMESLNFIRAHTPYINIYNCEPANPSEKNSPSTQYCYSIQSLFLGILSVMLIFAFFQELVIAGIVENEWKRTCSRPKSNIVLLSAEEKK
Excerpt: as §1

B1: Rituximab (antibody, V domains shown)
VH: QVQLQQPGAELVKPGASVKMSCKASGYTFTSYNMHWVKQTPGRGLEWIGAIYPGNGDTSYNQKFKGKATLTADKSSSTAYMQLSSLTSEDSAVYYCARSTYYGGDWYFNVWGAGTTVTVS
VL: QIVLSQSPAILSASPGEKVTMTCRASSSVSYIHWFQQKPGSSPKPWIYATSNLASGVPVRFSGSGSGTSYSLTISRVEAEDAATYYCQQWTSNPPTFGGGTKLEIKR
notes: also called Rituxumab; Rituxan
binding result (CD20-P172W): no binding
binding result [1]: binds
binding result [2]: binds
